Source: paper PMC7610778 (Science (New York, N.Y.), 2020)

What was measured:
[1] = target: Atg2-Atg18-CBP complex (yeast (S. cerevisiae), UniProt P53855;P43601); assay: pull-down
[2] = target: Atg2-mEGFP (yeast (S. cerevisiae), UniProt P53855 1-1592); assay: pull-down
[3] = target: T1, mCherry-Atg11 (yeast (S. cerevisiae), UniProt Q12527 1-1178); assay: pull-down
T1 sequence: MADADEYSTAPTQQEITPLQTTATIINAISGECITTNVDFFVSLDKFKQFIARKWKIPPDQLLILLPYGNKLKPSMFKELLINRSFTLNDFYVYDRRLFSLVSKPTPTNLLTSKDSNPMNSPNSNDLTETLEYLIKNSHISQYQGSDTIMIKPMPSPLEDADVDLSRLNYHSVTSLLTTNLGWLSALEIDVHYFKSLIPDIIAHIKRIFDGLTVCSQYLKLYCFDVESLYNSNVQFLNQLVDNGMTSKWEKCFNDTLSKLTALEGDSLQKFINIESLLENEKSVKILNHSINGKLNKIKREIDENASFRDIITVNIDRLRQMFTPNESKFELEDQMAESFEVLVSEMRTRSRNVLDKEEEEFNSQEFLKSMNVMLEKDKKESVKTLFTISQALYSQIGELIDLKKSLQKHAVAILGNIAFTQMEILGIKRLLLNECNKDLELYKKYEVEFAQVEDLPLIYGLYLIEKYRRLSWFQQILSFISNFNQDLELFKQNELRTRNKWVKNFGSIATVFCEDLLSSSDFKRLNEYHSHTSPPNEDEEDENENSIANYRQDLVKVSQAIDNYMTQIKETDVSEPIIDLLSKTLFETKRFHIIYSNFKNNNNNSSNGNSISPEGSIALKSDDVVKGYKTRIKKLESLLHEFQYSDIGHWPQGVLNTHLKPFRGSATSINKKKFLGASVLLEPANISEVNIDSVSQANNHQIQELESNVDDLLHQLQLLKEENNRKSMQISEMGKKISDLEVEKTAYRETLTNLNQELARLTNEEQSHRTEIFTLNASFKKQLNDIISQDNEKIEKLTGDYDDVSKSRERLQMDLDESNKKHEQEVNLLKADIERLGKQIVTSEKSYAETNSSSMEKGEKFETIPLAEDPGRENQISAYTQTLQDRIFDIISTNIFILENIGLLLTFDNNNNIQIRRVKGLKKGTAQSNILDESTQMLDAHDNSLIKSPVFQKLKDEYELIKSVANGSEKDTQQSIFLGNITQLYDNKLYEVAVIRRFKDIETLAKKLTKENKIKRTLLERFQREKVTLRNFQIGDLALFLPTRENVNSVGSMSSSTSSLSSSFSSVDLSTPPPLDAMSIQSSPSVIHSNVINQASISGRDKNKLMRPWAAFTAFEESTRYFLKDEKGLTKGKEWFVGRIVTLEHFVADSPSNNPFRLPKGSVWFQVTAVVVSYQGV

[4] = target: T2, Atg12–Atg5-Atg16-mCherry complex (yeast (S. cerevisiae), UniProt P38316;Q12380;Q03818, Atg12–Atg5 conjugate | Atg12–Atg5 conjugate); assay: membrane recruitment to GUVs imaged by microscopy
T2 sequence 1: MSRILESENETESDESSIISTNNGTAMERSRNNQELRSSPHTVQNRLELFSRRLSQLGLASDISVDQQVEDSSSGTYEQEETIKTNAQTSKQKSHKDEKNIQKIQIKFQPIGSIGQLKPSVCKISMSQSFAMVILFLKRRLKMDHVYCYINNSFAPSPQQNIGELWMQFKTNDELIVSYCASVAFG
T2 sequence 2: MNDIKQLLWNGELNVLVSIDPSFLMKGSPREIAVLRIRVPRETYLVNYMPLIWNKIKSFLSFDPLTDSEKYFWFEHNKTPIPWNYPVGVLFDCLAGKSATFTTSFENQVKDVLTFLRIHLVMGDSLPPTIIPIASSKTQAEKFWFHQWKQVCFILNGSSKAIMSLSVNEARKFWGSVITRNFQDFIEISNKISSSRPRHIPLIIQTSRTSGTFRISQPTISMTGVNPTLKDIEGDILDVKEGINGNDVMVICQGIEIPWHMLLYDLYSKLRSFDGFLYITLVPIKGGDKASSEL
T2 sequence 3: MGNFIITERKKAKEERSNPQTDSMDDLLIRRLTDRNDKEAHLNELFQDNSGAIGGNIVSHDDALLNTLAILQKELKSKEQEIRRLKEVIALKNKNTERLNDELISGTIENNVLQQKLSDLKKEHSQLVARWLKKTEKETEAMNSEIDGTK

[5] = target: the molecule itself

Atg2-mEGFP, sequence (P53855 whole entry): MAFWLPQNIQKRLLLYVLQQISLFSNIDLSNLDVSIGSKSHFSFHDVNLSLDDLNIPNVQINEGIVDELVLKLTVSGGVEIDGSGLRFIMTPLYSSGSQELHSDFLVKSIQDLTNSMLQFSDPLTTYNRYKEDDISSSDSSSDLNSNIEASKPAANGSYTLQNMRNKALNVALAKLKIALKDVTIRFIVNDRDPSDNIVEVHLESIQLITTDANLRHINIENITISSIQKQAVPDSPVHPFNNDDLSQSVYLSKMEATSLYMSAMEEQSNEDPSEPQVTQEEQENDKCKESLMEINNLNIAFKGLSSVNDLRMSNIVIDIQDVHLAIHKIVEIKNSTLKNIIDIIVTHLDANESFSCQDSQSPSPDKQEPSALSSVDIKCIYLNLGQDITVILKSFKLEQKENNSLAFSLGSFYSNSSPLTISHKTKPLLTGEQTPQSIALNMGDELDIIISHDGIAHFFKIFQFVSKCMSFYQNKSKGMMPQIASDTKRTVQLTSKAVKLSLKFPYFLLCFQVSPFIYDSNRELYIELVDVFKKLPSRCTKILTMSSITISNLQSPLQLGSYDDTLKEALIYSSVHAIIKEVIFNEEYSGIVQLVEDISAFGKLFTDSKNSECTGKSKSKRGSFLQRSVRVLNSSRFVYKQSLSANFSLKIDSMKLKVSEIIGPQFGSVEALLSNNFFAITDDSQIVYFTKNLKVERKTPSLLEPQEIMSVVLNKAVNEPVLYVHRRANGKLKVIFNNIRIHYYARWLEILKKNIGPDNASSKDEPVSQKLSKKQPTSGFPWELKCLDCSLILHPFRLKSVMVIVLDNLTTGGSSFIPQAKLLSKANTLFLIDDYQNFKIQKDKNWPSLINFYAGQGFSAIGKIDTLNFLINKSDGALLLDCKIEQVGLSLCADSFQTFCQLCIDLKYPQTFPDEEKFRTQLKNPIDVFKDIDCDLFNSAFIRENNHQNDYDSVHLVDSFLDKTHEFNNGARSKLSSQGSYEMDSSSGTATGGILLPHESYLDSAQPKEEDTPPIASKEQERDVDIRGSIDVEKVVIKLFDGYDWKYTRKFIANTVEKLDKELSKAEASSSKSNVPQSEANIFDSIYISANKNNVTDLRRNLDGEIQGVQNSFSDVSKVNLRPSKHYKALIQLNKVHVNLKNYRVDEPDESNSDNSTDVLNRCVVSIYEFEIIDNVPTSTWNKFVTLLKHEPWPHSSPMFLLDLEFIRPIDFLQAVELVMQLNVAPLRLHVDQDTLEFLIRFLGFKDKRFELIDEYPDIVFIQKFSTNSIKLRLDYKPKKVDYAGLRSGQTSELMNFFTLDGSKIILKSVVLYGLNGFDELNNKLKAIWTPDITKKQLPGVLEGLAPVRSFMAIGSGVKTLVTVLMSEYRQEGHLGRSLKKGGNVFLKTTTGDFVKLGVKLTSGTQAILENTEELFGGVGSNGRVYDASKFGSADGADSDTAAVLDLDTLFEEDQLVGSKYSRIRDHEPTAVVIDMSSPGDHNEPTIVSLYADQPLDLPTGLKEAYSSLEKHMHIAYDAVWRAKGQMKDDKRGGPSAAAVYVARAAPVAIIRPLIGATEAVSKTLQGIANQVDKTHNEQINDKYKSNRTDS
Atg2-Atg18-CBP complex, sequence (P53855 whole entry, chain 1 of 2): as the sequence (P53855 whole entry) above
Atg2-Atg18-CBP complex, sequence (P43601 whole entry, chain 2 of 2): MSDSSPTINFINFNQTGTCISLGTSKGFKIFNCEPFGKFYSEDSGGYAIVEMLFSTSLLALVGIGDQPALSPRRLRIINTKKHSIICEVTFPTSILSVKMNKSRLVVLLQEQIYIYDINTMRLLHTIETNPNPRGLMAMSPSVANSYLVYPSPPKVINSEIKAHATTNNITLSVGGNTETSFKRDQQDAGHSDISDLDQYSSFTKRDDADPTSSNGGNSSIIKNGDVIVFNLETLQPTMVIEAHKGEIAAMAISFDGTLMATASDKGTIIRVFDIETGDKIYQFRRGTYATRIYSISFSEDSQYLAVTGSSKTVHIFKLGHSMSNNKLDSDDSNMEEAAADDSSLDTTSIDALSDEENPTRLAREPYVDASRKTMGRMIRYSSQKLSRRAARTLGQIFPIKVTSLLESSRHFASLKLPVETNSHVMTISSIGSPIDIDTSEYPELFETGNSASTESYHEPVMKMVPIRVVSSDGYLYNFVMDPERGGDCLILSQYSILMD

B1: Atg12–Atg5-Atg16-GFP complex (complex)
chain 1: MSRILESENETESDESSIISTNNGTAMERSRNNQELRSSPHTVQNRLELFSRRLSQLGLASDISVDQQVEDSSSGTYEQEETIKTNAQTSKQKSHKDEKNIQKIQIKFQPIGSIGQLKPSVCKISMSQSFAMVILFLKRRLKMDHVYCYINNSFAPSPQQNIGELWMQFKTNDELIVSYCASVAFG
chain 2: MNDIKQLLWNGELNVLVSIDPSFLMKGSPREIAVLRIRVPRETYLVNYMPLIWNKIKSFLSFDPLTDSEKYFWFEHNKTPIPWNYPVGVLFDCLAGKSATFTTSFENQVKDVLTFLRIHLVMGDSLPPTIIPIASSKTQAEKFWFHQWKQVCFILNGSSKAIMSLSVNEARKFWGSVITRNFQDFIEISNKISSSRPRHIPLIIQTSRTSGTFRISQPTISMTGVNPTLKDIEGDILDVKEGINGNDVMVICQGIEIPWHMLLYDLYSKLRSFDGFLYITLVPIKGGDKASSEL
chain 3: MGNFIITERKKAKEERSNPQTDSMDDLLIRRLTDRNDKEAHLNELFQDNSGAIGGNIVSHDDALLNTLAILQKELKSKEQEIRRLKEVIALKNKNTERLNDELISGTIENNVLQQKLSDLKKEHSQLVARWLKKTEKETEAMNSEIDGTK
modifications: Atg12–Atg5 conjugate | Atg12–Atg5 conjugate
[1]
  binding result: binds

B2: Atg5-mCherry-Atg16(1-46) (complex)
chain 1: MNDIKQLLWNGELNVLVSIDPSFLMKGSPREIAVLRIRVPRETYLVNYMPLIWNKIKSFLSFDPLTDSEKYFWFEHNKTPIPWNYPVGVLFDCLAGKSATFTTSFENQVKDVLTFLRIHLVMGDSLPPTIIPIASSKTQAEKFWFHQWKQVCFILNGSSKAIMSLSVNEARKFWGSVITRNFQDFIEISNKISSSRPRHIPLIIQTSRTSGTFRISQPTISMTGVNPTLKDIEGDILDVKEGINGNDVMVICQGIEIPWHMLLYDLYSKLRSFDGFLYITLVPIKGGDKASSEL
chain 2: MGNFIITERKKAKEERSNPQTDSMDDLLIRRLTDRNDKEAHLNELF
[2]
  binding result: binds

B3: Atg9-EGFP in proteoliposomes (Atg9 PLs) (natural protein)
chain: MERDEYQLPNSHGKNTFLSRIFGLQSDEVNPSLNSQEMSNFPLPDIERGSSLLHSTNDSREDVDENDLRVPESDQGTSTEEEDEVDEEQVQAYAPQISDGLDGDHQLNSVTSKENVLETEKSNLERLVEGSTDDSVPKVGQLSSEEEEDNEFINNDGFDDDTPLFQKSKIHEFSSKKSNTIEDGKRPLFFRHILQNNRPQRDTQKLFTSSNAIHHDKDKSANNGPRNINGNQKHGTKYFGSATQPRFTGSPLNNTNRFTKLFPLRKPNLLSNISVLNNTPEDRINTLSVKERALWKWANVENLDIFLQDVYNYYLGNGFYCIILEKILNICTLLFVVFVSTYMGHCVDYSKLPTSHRVSDIIIDKCYSNSITGFTKFFLWMFYFFVILKIVQLYFDVQKLSELQNFYKYLLNISDDELQTLPWQNVIQQLMYLKDQNAMTANVVEVKAKNRIDAHDVANRIMRRENYLIALYNSDILNLSLPIPLFRTNVLTKTLEWNINLCVMGFVFNESGFIKQSILKPSQREFTREELQKRFMLAGFLNIILAPFLVTYFVLLYFFRYFNEYKTSPGSIGARQYTPIAEWKFREYNELYHIFKKRISLSTTLANKYVDQFPKEKTNLFLKFVSFICGSFVAILAFLTVFDPENFLNFEITSDRSVIFYITILGAIWSVSRNTITQEYHVFDPEETLKELYEYTHYLPKEWEGRYHKEEIKLEFCKLYNLRIVILLRELTSLMITPFVLWFSLPSSAGRIVDFFRENSEYVDGLGYVCKYAMFNMKNIDGEDTHSMDEDSLTKKIAVNGSHTLNSKRRSKFTAEDHSDKDLANNKMLQSYVYFMDDYSNSENLTGKYQLPAKKGYPNNEGDSFLNNKYSWRKQFQPGQKPELFRIGKHALGPGHNISPAIYSTRNPGKNWDNNNNGDDIKNGTNNATAKNDDNNGNNDHEYVLTESFLDSGAFPNHDVIDHNKMLNSNYNGNGILNKGGVLGLVKEYYKKSDVGR
[3]
  binding result: binds

B4: Atg21 (natural protein)
chain: MKVLQFNQDATCCVVAASSHQISIFNCDPFGKCFEIDTKNSKKKTSNNNGSASNSESRNNEESILITNGSRDRTDAEEEEDNEDNALVTGNILKEGEFVIEMLFSTSLIAIADRGQGLNKGKKLKIVNTKRKCTICEIVFPHEIVDVVMNRKRMCVLLESDQIFIYDISCMKPLETIDLWEDHYKRSQANSFSNASNTGTLEGDSANLNRVATNLLANATQKSVNGSNPSVRTRRNSLRSKIRPRMVLSNDDRSILCFTAYSSPKKNKPNSEALYDVVIYDTLNVTPVNYLNSVHKGNVACLAVSHDGKLLATASDKGTIIRVFHTGVDSDYMSSRSLFKEFRRGTRLCNLYQLAFDKSMTMIGCVGDTDTIHLFKLDDASNSLPGDNSSNGHWNEEEYILASNSNPSMGTPKEIPLSKPRIANYFSKKIKSSIPNQNLSRNFAYITVNESNRSCLGFPDEFPNQVYIASDDGTFSIYSIPSKPGECVLTKNNKFT
[4]
  binding result: binds

B5: Atg11 (full length; fluorescent tag of this experiment not told) (natural protein)
chain: MADADEYSTAPTQQEITPLQTTATIINAISGECITTNVDFFVSLDKFKQFIARKWKIPPDQLLILLPYGNKLKPSMFKELLINRSFTLNDFYVYDRRLFSLVSKPTPTNLLTSKDSNPMNSPNSNDLTETLEYLIKNSHISQYQGSDTIMIKPMPSPLEDADVDLSRLNYHSVTSLLTTNLGWLSALEIDVHYFKSLIPDIIAHIKRIFDGLTVCSQYLKLYCFDVESLYNSNVQFLNQLVDNGMTSKWEKCFNDTLSKLTALEGDSLQKFINIESLLENEKSVKILNHSINGKLNKIKREIDENASFRDIITVNIDRLRQMFTPNESKFELEDQMAESFEVLVSEMRTRSRNVLDKEEEEFNSQEFLKSMNVMLEKDKKESVKTLFTISQALYSQIGELIDLKKSLQKHAVAILGNIAFTQMEILGIKRLLLNECNKDLELYKKYEVEFAQVEDLPLIYGLYLIEKYRRLSWFQQILSFISNFNQDLELFKQNELRTRNKWVKNFGSIATVFCEDLLSSSDFKRLNEYHSHTSPPNEDEEDENENSIANYRQDLVKVSQAIDNYMTQIKETDVSEPIIDLLSKTLFETKRFHIIYSNFKNNNNNSSNGNSISPEGSIALKSDDVVKGYKTRIKKLESLLHEFQYSDIGHWPQGVLNTHLKPFRGSATSINKKKFLGASVLLEPANISEVNIDSVSQANNHQIQELESNVDDLLHQLQLLKEENNRKSMQISEMGKKISDLEVEKTAYRETLTNLNQELARLTNEEQSHRTEIFTLNASFKKQLNDIISQDNEKIEKLTGDYDDVSKSRERLQMDLDESNKKHEQEVNLLKADIERLGKQIVTSEKSYAETNSSSMEKGEKFETIPLAEDPGRENQISAYTQTLQDRIFDIISTNIFILENIGLLLTFDNNNNIQIRRVKGLKKGTAQSNILDESTQMLDAHDNSLIKSPVFQKLKDEYELIKSVANGSEKDTQQSIFLGNITQLYDNKLYEVAVIRRFKDIETLAKKLTKENKIKRTLLERFQREKVTLRNFQIGDLALFLPTRENVNSVGSMSSSTSSLSSSFSSVDLSTPPPLDAMSIQSSPSVIHSNVINQASISGRDKNKLMRPWAAFTAFEESTRYFLKDEKGLTKGKEWFVGRIVTLEHFVADSPSNNPFRLPKGSVWFQVTAVVVSYQGV
[5]
  stoichiometry N: 2

B6: Atg19-3D (S390D, S391D, S396D) (natural protein)
chain: MNNSKTNQQMNTSMGYPLTVYDECNKFQLIVPTLDANIMLWCIGQLSLLNDSNGCKHLFWQPNDKSNVRILLNNYDYGHLFKYLQCQRKCSVYIGEGTLKKYNLTISTSFDNFLDLTPSEEKESLCREDAHEDPVSPKAGSEEEISPNSTSNVVVSRECLDNFMKQLLKLEESLNKLELEQKVTNKEPNHRISGTIDIPEDRSELVNFFTELKTVKQLEDVFQRYHDYERLSQECDSKTEIASDHSKKETKIEVEPPNERSLQITMNQRDNSLYFQLFNNTNSVLAGNCKLKFTDAGDKPTTQIIDMGPHEIGIKEYKEYRYFPYALDLEAGSTIEIENQYGEVIFLGKYGSSPMINLRPPSRLSAESLQASQEPFYSFQIDTLPELDDDDIISTDISLSYDGDDNEKALTWEEL
[3]
  binding result: binds
